Source: article PMC5832032, “Structural Basis for pH-Dependent Oligomerization of Dihydropyrimidinase from Pseudomonas aeruginosa PAO1” (Bioinorganic Chemistry and Applications, 2018)
“And” between values parts separate entries of the source, which are not always exact repeats. Identical values can stand only once.

Target: the molecule itself
Test: SEC; Superdex 200 prep grade, purified protein 5 mg/mL in Buffer C (20 mM MES, 100 mM NaCl, pH 5.9), 0.5 mL/min; masses estimated against standard proteins; dimers and tetramers coexist

B1: Pseudomonas aeruginosa PAO1 dihydropyrimidinase (enzyme)
chain: MSLLIRGATVVTHEESYRADVLCANGLIQAIGENLETPSGCDVLDGGGQYLMPGGIDPHTHMQLPFMGTVASEDFFSGTAAGLAGGTTSIIDFVIPNPRQSLLEAFHTWRGWAQKSAADYGFHVAITWWSDEVAREMGELVAQHGVNSFKHFMAYKNAIMAADDTLVASFERCLELGAVPTVHAENGELVFHLQQKLLAQGLTGPEAHPLSRPPQVEGEAASRAIRIAETLGTPLYLVHISSREALDEIAYARAKGQPVYGEVLAGHLLLDDSVYRHPDWATAAGYVMSPPFRPVEHQEALWRGLQSGNLHTTATDHCCFCAEQKAMGRDDFSKIPNGTAGIEDRMALLWDAGVNSGRLSMHEFVALTSTNTAKIFNLFPRKGAIRVGADADLVLWDPQGSRTLSAATHHQRVDFNIFEGRTVRGIPSHTISQGKLLWAAGDLRAEPGAGRYVERPAYPSVYEVLGRRAERQRPVAVER
modifications: carboxylated lysine in the active site (position not given)
notes: dihydropyrimidinase of Pseudomonas aeruginosa PAO1; two zinc ions per monomer in the active site; also called P. aeruginosa dihydropyrimidinase; pseudomonal dihydropyrimidinase
- stoichiometry N: 2 and 4
